Source: US11123413B2, “Carbapenemases for use with antibiotics for the protection of the intestinal microbiome” (priority 2015, dated 2021)
“Also recorded” adds a separate entry of the source.

B1: NDM: New Delhi metallo-β-lactamase NDM-1; NDM-68 = product of strain STY-NP1602-68 (STII Δ35, N-terminal GQQMETG) (protein)
chain: GQQMETGDQRFGDLVFRQLAPNVWQHTSYLDMPGFGAVASNGLIVRDGGRVLVVDTAWTDDQTAQILNWIKQEINLPVALAVVTHAHQDKMGGMDALHAAGIATYANALSNQLAPQEGMVAAQHSLTFAANGWVEPATAPNFGPLKVFYPGPGHTSDNITVGIDGTDIAFGGCLIKDSKAKSLGNLGDADTEHYAASARAFGAAFPKASMIVMSHSAPDSRAAITHTARMADKLR
B2: P2A: broad spectrum carbapenemase, class B metallo-enzyme requiring zinc, SEQ ID NO: 37; P2A-21 = product of strain SYT-PP0602-21 (protein)
chain: ETGTISISQLNKNVWVHTELGYFNGEAVPSNGLVLNTSKGLVLVDSSWDNKLTKELIEMVEKKFQKRVTDVIITHAHADRIGGITALKERGIKAHSTALTAELAKNSGYEEPLGDLQTITSLKFGNTKVETFYPGKGHTEDNIVVWLPQYQILAGGCLVKSAEAKDLGNVADAYVNEWSTSIENVLKRYGNINSVVPGHGEVGDKGLLLHTLDLLK

Key:
[1] = CENTA chromogenic beta-lactamase biological activity assay (P3A standard curve); type: biochemical; conditions: for stability of enzyme activity in cell lysates under differing storage conditions: fresh, frozen (−80° C.) or overnight at 4° C. lysate; for relative potency for CENTA degradation: midpoint of sigmoid curve, protein concentration vs OD405, P3A=1.0; for β-Lactamase: purified carbapenemase, P3A standard
Method: Biological activity of the carbapenemases, P2A, NDM, and KPC, present in the E. coli cell lysates were evaluated in a microtiter plate assay using CENTA as the chromogenic substrate (Bebrone et al. Antimicrob. Agents Chemother (2001) 45:1868-1871; van Berkel et al., J. Med. Chem. (2013) 56:6945-6953). Briefly, the assay was performed in a 50 mM NaH2PO4 buffer, pH 7.0 with supplementation of 100 uM ZnSO4, with CENTA (Calbiochem Cat #219475) at 50 ug/ml. The assays were run using purified P3A protein for the standard curve at protein concentrations of 0 ng/ml, 3 ng/ml, 6 ng/ml, 8 ng/ml, 10 ng/ml, 15 ng/ml, 20 ng/ml and 40 ng·ml. The plates were read at 405 nm after a 30 minute incubation using a microtiter plate reader. Cell lysates from the bacterial strains showing the highest protein expression levels by SDS-PAGE were evaluated for biological activity, which included P2A strains 5, 15, 20, 21, and 23, NDM strains 53, 58, 63, 68, and 69, and KPC strains 94, 96, 99, 100, 101, 102, 103, and 104 (Table 11). In addition, fresh lysate, frozen (−80° C.) lysate, or lysate stored overnight at 4° C. from strain P2A-21 were compared, and fresh and frozen (−80° C.) lysates from strain NDM-63 were compared to assess the stability of enzyme activity under differing storage conditions. All other lysates were kept frozen at −80° C. until assayed (Table 11).
Bacterial lysates were analyzed for protein expression by SDS-PAGE. Strong NDM expression was detected in all strains with good reproducibility between shake flasks (FIG. 4). Strong expression of P2A and KPC was also detected with good reproducibility between shake flasks (FIG. 5). In all cases, the vast majority of the protein was detected in the soluble fractions (FIG. 4 and FIG. 5). Biological activity was assessed in the cell lysates using the CENTA assay as described with P3A as the standard. […] The highest biological activity for NDM was from strain NDM-68.
Aliquots of bacteria were collected early in the fermentation cycle, 16 hours, for P2A and NDM, and 32 hours for KPC, prior to enzyme expression induction, and late in the cycle (48 hours) and subjected to SDS-PAGE (FIG. 6 and FIG. 7) and biological activity analyses (Table 15). […] Fermenters A, B, and C, reached high ODs. […] Bioreactor expression is achieved by changing of growth conditions, lowering phosphate conditions, and/or changing the promoter.
Frozen cell pellets retained from the fermenter studies, Fermenter A, P2A, Fermenter B, NDM, or from the shake flask studies, shake flask A, KPC, were lysed at 3×7000 psi in a Panda table top cell homogenizer. The lysate was spun at 45000 g for 1 hour, supernatants collected and pH adjusted to 5.5 with 1 M MES. The supernatants were spun at 45000 g for 30 minutes, to remove precipitated debris and filtered through a 0.45 um filter. The filtered supernatants were subjected to cation-exchange chromatography using an SP-sepharose column. NDM was subjected to an additional purification step using a hydrophobic column, phenyl sepharose. The fractions containing the peak levels of protein were concentrated and dialyzed against a 20 mM HEPES, pH 7.5, 150 mM NaCl buffer. The P2A and NDM samples were supplemented with 100 uM ZnSO4 in all steps of the purification process. Purified enzymes yields were calculated to be approximately 600 mg of protein per liter. Purified proteins were analyzed by SDS-PAGE (FIG. 8) and for biological activity (Table 16).
As different beta-lactamase enzymes display differential affinity and kinetics with diverse substrates, including antibiotics and the CENTA reagent, it was possible to determine the relative specific activities of P2A, NDM, and KPC compared to P3A for CENTA as a substrate now that purified proteins were available and therefore, protein concentrations were known. […]

E. coli (ATCC 25922) = test: Antibiotic inactivation screening assay via E. coli growth (96 well plate, OD625); type: cell-based; conditions: for activity against cephalosporins and carbapenems / antibiotic degradation profile compared with P3A: 10, 100 or 1000 ng/ml enzyme; for inhibition by beta-lactamase inhibitors: SAM, TZP, CAZ/AVI combinations; for degradation of carbapenems: meropenem, imipenem, ertapenem, doripenem
Method: To mimic the activity of the carbapenemase enzymes, P2A, NDM, and KPC in the gut in the presence of high antibiotic concentrations, a novel screening assay was performed using a 96 well plate format. The assay was performed by mixing 10, 100 or 1000 μg/ml of the antibiotics, AMP: ampicillin, SAM: ampicillin/sulbactam, PIP: pipercillin, TZP: pipercillin/taxobactam, CRO: ceftriaxone, CTX: cefotaxime, CFZ: cefozolin, CXM: cefuroxime, CFP: cefoperazone, FEP: cefepime, CAZ: ceftazidime, MEM: meropenem, IPM: imipenem, ERT: ertapenem, DOR: doripenem, ATM: aztreonam, CDR: cefdinir; LEX: cephalexin; and CAZ/AVI: […]/avibactam with purified P2A, NDM, KPC, and P3A at concentrations of 10, 100, or 1000 ng/ml in each well of a 96 well microtiter plate. E. coli (ATCC 25922) was added immediately after the addition of the beta-lactamase enzymes, and the plates were incubated overnight. Bacterial growth was quantified by measuring the absorbance at 625 nm (OD625) in a Spectramax 384 Plus plate reader. The analysis was performed twice for each antibiotic. The beta-lactamase activity was determined as positive or negative based on the appearance of bacterial growth in the individual wells. An OD625 of 1.0 or greater indicated maximal bacterial growth, therefore complete antibiotic degradation and beta-lactamase activity. […] FIGS. 21A, 21B, and 21C display the comparison of the four beta-lactamases, P3A (SYN-004), P2A, NDM, and KPC with all 16 antibiotics at beta-lactamase concentrations of 10, 100, or 1000 ng/ml. […]

[2] = Oral P2A and intravenous ampicillin in jejunal-fistulated dogs; type: in vivo, laboratory beagles; conditions: peroral P2A 1 mg/kg liquid formulation, intravenous ampicillin 40 mg/kg
Method: The ability of P2A to degrade ampicillin in the dog intestinal tract was evaluated using laboratory beagles that had permanent jejunal fistulas. The fistulas allowed the repeated collection of jejunal chyme specimens from these animals. Dogs were treated with peroral P2A (1 mg/kg) in a liquid formulation (PBS buffer), and/or intravenous ampicillin (40 mg/kg). Serum samples were collected and serum ampicillin levels quantified. Jejunal chyme samples were collected and ampicillin and P2A levels were quantified. Ampicillin levels in serum and chyme were measured using a standard reverse phase HPLC method. P2A activity levels in chyme were determined spectrophotometrically using meropenem as a substrate. Meropenem hydrolysis was monitored at a wavelength of 297 nm.

[3] = fermenter cell lysate, 16 hr, Bioreactor A or B (standard phosphate)
[4] = fermenter cell lysate, 48 hr, Bioreactor A, B or D (standard phosphate)

Row | Molecule | Activity [1, 3] [mg/L] | Activity ([1]; fermenter cell lysate, 16 hr, Bioreactor C (extra zinc and extra phosphate)) [mg/L] | Activity [1, 4] [mg/L] | Activity ([1]; fermenter cell lysate, 48 hr, Bioreactor C (extra zinc and extra phosphate)) [mg/L] | stability of enzyme activity in cell lysates under differing storage conditions [1] | relative potency for CENTA degradation [1] | β-Lactamase ([1]; CENTA) [mg/L] | activity against cephalosporins and carbapenems (E. coli (ATCC 25922)) | antibiotic degradation profile compared with P3A (E. coli (ATCC 25922)) | inhibition by beta-lactamase inhibitors (E. coli (ATCC 25922)) | degradation of carbapenems (E. coli (ATCC 25922)) | Activity ([1]; bacterial cell lysate, shake flask culture, Flask A, CENTA, P3A as the standard) [mg/L] | Activity ([1]; bacterial cell lysate, shake flask culture, Flask B, CENTA, P3A as the standard) [mg/L] | activity against cefepime and ceftazidime compared to NDM (E. coli (ATCC 25922)) | ampicillin in jejunal chyme [2] | effect on serum levels of ampicillin [2]
1 | B1 | 6.6 | 5.8 | 520.0 | 14.1 | No difference in activity | 0.71 | 1703.8 | efficiently degraded all tested cephalosporins and carbapenems | broader degradation profile than P3A | resistant to inhibition by sulbactam, tazobactum, and avibactam; also recorded: least affected by sulbactam | efficiently degraded meropenem, imipenem, ertapenem, and doripenem |  |  |  |  | 
2 | B2 | 3.2 |  | 59.7 |  | No difference in activity | 0.12 | 317.7 | good activity against all carbapenems and most cephalosporins | broader degradation profile than P3A | resistant to inhibition by sulbactam, tazobactum, and avibactam | efficiently degraded meropenem, imipenem, ertapenem, and doripenem | 19.6 | 17.0 | activity was reduced against the cephalosporins, cefepime and ceftazidime | degraded ampicillin | does not reduce serum levels of ampicillin
